# ± gives the uncertainty stated by the source.
# Experiment: abundance fitness (aPCA) (normalised: wild type 0, dead -1); higher = more abundant; growth selection in yeast, the domain comes from the species named
# Conditions: Homo sapiens
row,Substance,abundance fitness
1,"E3 ubiquitin-protein ligase NEDD4 A851D, P46934",-0.043 ± 0.04
2,"E3 ubiquitin-protein ligase NEDD4 E869I, P46934",-0.137 ± 0.071
3,"E3 ubiquitin-protein ligase NEDD4 F857Y, P46934",0.013 ± 0.048
4,"E3 ubiquitin-protein ligase NEDD4 H850V, P46934",-0.155 ± 0.055
5,"E3 ubiquitin-protein ligase NEDD4 I859V, P46934",-0.074 ± 0.065
6,"E3 ubiquitin-protein ligase NEDD4 K844D, P46934",-0.053 ± 0.031
7,"E3 ubiquitin-protein ligase NEDD4 K864R, P46934",-0.042 ± 0.053
8,"E3 ubiquitin-protein ligase NEDD4 N853D, P46934",-0.116 ± 0.071
9,"E3 ubiquitin-protein ligase NEDD4 P852S, P46934",-0.058 ± 0.055
10,"E3 ubiquitin-protein ligase NEDD4 R849K, P46934",0.052 ± 0.062
11,"E3 ubiquitin-protein ligase NEDD4 T863Q, P46934",-0.511 ± 0.1
12,"E3 ubiquitin-protein ligase NEDD4 V848I, P46934",-0.103 ± 0.075

# — the Human Domainome abundance scans (Beltran et al. 2025)
